The assay deals with Fzd4 (Homo sapiens (Human)) (UniProt Q9ULV1). Description: cell-based or functional assay.

The text below walks through data of patent US20150093375A1.

Sequence of UniProt Q9ULV1 (Q9ULV1 37-537 limits assumed, form in doubt): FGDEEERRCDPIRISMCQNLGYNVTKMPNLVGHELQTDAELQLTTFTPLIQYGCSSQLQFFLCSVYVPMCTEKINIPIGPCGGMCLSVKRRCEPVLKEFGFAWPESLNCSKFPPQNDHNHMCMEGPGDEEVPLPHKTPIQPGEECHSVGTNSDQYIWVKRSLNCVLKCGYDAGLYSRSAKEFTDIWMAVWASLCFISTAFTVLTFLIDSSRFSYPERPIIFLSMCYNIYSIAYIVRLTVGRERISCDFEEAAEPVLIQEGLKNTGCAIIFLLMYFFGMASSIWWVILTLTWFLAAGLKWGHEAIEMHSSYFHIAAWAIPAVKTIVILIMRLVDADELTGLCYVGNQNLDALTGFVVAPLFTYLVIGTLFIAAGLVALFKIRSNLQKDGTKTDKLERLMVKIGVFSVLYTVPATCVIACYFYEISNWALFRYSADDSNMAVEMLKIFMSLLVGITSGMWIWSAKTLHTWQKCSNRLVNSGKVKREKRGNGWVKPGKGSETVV

For the substance recombinant Norrin (ligand), the Topflash reporter activity (firefly divided by renilla), cells overexpressing TSPAN12 against control cells, 10 nM recombinant Norrin was 4 fold.
